# Data published in US20220177587A1, “METHODS AND USES OF VARIANT CD80 FUSION PROTEINS AND RELATED CONSTRUCTS” (Alpine Immune Sciences, Inc., priority 2018, published 2022).
# Assays:
# CD28 (human) [1] = molecular target: CD28 (human) (UniProt P10747); assay: flow cytometry, Jurkat cells (CD28)
# CD28 (human) [2] = molecular target: CD28 (human) (UniProt P10747); assay: flow cytometry, Jurkat cells (CD28); remark: listed apart in the source
# CD28 (human) [3] = molecular target: CD28 (human) (UniProt P10747); assay: flow cytometry, Jurkat cells (CD28); remark: listed apart in the source
# human CTLA-4 (human) [4] = molecular target: human CTLA-4 (human) (UniProt P16410); assay: flow cytometry, CHO cells expressing CTLA4
# Target sequence in this assay (P16410 36-223): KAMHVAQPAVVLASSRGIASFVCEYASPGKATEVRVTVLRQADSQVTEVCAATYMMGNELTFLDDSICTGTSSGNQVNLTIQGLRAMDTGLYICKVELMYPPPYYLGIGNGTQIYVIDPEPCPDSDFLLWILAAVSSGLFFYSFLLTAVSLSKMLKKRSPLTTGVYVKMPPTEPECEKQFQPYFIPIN
# PD-L1 (human) [5] = molecular target: PD-L1 (human) (UniProt Q9NZQ7); assay: flow cytometry, CHO cells expressing PD-L1
# Target sequence in this assay (Q9NZQ7 19-290): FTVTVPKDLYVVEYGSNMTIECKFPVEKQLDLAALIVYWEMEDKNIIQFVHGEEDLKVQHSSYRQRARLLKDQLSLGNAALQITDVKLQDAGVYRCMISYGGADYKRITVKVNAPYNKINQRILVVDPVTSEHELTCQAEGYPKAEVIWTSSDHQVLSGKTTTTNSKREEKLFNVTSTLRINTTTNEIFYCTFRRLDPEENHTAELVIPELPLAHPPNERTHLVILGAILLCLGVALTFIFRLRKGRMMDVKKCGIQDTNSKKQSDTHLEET
# human CTLA-4 (human) [6] = molecular target: human CTLA-4 (human) (UniProt P16410); assay: flow cytometry, CHO cells stably expressing CTLA4
# Target sequence in this assay (P16410 36-223): as the sequence (P16410 36-223) above
# PD-L1 (human) [7] = molecular target: PD-L1 (human) (UniProt Q9NZQ7); assay: flow cytometry, CHO cells stably expressing PD-L1
# Target sequence in this assay (Q9NZQ7 19-290): as the sequence (Q9NZQ7 19-290) above
# human CTLA-4 (human) [8] = molecular target: human CTLA-4 (human) (UniProt P16410); assay: flow cytometry, CHO cells stably expressing CTLA4; remark: listed apart in the source
# Target sequence in this assay (P16410 36-223): as the sequence (P16410 36-223) above
# PD-L1 (human) [9] = molecular target: PD-L1 (human) (UniProt Q9NZQ7); assay: flow cytometry, CHO cells stably expressing PD-L1; remark: listed apart in the source
# Target sequence in this assay (Q9NZQ7 19-290): as the sequence (Q9NZQ7 19-290) above
# human CTLA-4 (human) [10] = molecular target: human CTLA-4 (human) (UniProt P16410); assay: flow cytometry, CHO cells stably expressing CTLA4; remark: listed apart in the source
# Target sequence in this assay (P16410 36-223): as the sequence (P16410 36-223) above
# PD-L1 (human) [11] = molecular target: PD-L1 (human) (UniProt Q9NZQ7); assay: flow cytometry, CHO cells stably expressing PD-L1; remark: listed apart in the source
# Target sequence in this assay (Q9NZQ7 19-290): as the sequence (Q9NZQ7 19-290) above
# [12] = molecular target: human CTLA-4 (huCTLA4), on stably transduced CHO cells (human) (UniProt P16410); assay: flow cytometry on CHO cells stably expressing huCTLA4, 33.3 nM Fc fusion, PE anti-human Fc
# [13] = molecular target: human PD-L1 (huPD-L1), on stably transduced CHO cells (human) (UniProt Q9NZQ7); assay: flow cytometry on CHO cells stably expressing huPD-L1, 33.3 nM Fc fusion, PE anti-human Fc
# [14] = molecular target: CD28, endogenously expressed on Jurkat/IL2 reporter cells (human) (UniProt P10747); assay: flow cytometry on Jurkat/IL2 reporter cells (endogenous CD28), 33.3 nM Fc fusion, PE anti-human Fc
# human CTLA-4 (human) [15] = molecular target: human CTLA-4 (human) (UniProt P16410); assay: flow cytometry, CHO cells expressing huCTLA4
# Target sequence in this assay (P16410 36-223): as the sequence (P16410 36-223) above
# CD28 (human) [16] = molecular target: CD28 (human) (UniProt P10747); assay: flow cytometry, Jurkat/IL2 reporter cells (endogenous CD28)
# CD28 (human) [17] = molecular target: CD28 (human) (UniProt P10747)
# PD-L1 (human) [18] = molecular target: PD-L1 (human) (UniProt Q9NZQ7)
# Target sequence in this assay (Q9NZQ7 19-290 limits assumed): as the sequence (Q9NZQ7 19-290) above
# PD-L1 (human) [19] = molecular target: PD-L1 (human) (UniProt Q9NZQ7); assay: flow cytometry, MFI on PD-L1 cells over MFI on CD28 cells
# Target sequence in this assay (Q9NZQ7 19-290): as above
# CD28 (human) [20] = molecular target: CD28 (human) (UniProt P10747); assay: flow cytometry, Expi293F cells transfected with CD28
# PD-L1 (human) [21] = molecular target: PD-L1 (human) (UniProt Q9NZQ7); assay: flow cytometry, Expi293F cells transfected with PD-L1
# human CTLA-4 (human) [22] = molecular target: human CTLA-4 (human) (UniProt P16410); assay: flow cytometry, Expi293F cells transfected with CTLA-4
# CD28 (human) [23] = molecular target: CD28 (human) (UniProt P10747); remark: listed apart in the source
# PD-L1 (human) [24] = molecular target: PD-L1 (human) (UniProt Q9NZQ7); remark: listed apart in the source
# Target sequence in this assay (Q9NZQ7 19-290): as above
# CD28 (human) [25] = molecular target: CD28 (human) (UniProt P10747); remark: listed apart in the source
# CD28 (human) [26] = molecular target: CD28 (human) (UniProt P10747); remark: listed apart in the source
# PD-L1 (human) [27] = molecular target: PD-L1 (human) (UniProt Q9NZQ7); remark: listed apart in the source
# CD80 WT IgV-Fc (Fc fusion), sequence (chain): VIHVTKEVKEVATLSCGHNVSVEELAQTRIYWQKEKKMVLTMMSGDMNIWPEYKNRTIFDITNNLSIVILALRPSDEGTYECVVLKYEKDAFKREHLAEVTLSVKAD
# human PD-L1 (huPD-L1), on stably transduced CHO cells (human), sequence (Q9NZQ7 19-290): as the sequence (Q9NZQ7 19-290) above
# human CTLA-4 (huCTLA4), on stably transduced CHO cells (human), sequence (P16410 36-223): as the sequence (P16410 36-223) above
substance,measurement,setting,value
CD80 WT IgV-Fc (Fc fusion),MFI at 33.3 nM,CD28 (human) [1],95 MFI
same,MFI at 33.3 nM,CD28 (human) [1]; record 2,41 MFI
same,MFI at 33.3 nM,CD28 (human) [2],41.2 MFI
same,MFI at 33.3 nM,CD28 (human) [3],43.9 MFI
same,MFI at 33.3 nM,human CTLA-4 (human) [4],26400 MFI
same,MFI at 33.3 nM,PD-L1 (human) [5],44 MFI
same,MFI at 33.3 nM,human CTLA-4 (human) [6],1030 MFI
same,MFI at 33.3 nM,PD-L1 (human) [7],83 MFI
same,MFI at 33.3 nM,human CTLA-4 (human) [8],1040 MFI
same,MFI at 33.3 nM,PD-L1 (human) [9],70.9 MFI
same,MFI at 33.3 nM,human CTLA-4 (human) [10],1360 MFI
same,MFI at 33.3 nM,PD-L1 (human) [11],43.6 MFI
same,MFI at 33.3 nM,[12],1920 MFI
same,MFI at 33.3 nM,[13],70.3 MFI
same,MFI at 33.3 nM,[14],66 MFI
variant CD80 IgV-Fc E35D/M47L/A71G/L97Q (Fc fusion),MFI at 33.3 nM,human CTLA-4 (human) [15],226000 MFI
same,MFI at 33.3 nM,CD28 (human) [16],300 MFI
variant CD80 IgV-Fc H18Y/A26E/E35D/M47L/V68M/D90G (Fc fusion),"IL-2 luciferase reporter, fold increase over WT CD80-IgV-Fc at 5.0 nM",CD28 (human) [17],2.29 fold
same,"IL-2 luciferase reporter, fold increase over WT CD80-IgV-Fc at 5.0 nM",PD-L1 (human) [18],2.29 fold
same,Fold change to WT CD80,CD28 (human) [3],60.9 fold
same,MFI at 33.3 nM,CD28 (human) [3],2680 MFI
same,Fold change to WT CD80,human CTLA-4 (human) [10],18.3 fold
same,MFI at 33.3 nM,human CTLA-4 (human) [10],24900 MFI
same,Fold change to WT CD80,PD-L1 (human) [11],578 fold
same,MFI at 33.3 nM,PD-L1 (human) [11],25200 MFI
same,Ratio of PDL1:CD28,PD-L1 (human) [19],9.4
CD80 M38V/T41D/M43I/W50G/D76G/V83A/K89E/I118V/T120S/I126V/T130A ECD-Fc (Fc fusion),MFI,CD28 (human) [20],5 MFI
CD80 V20L/L70Q/A91S/I118V/T120S/T130A ECD-Fc (Fc fusion),MFI,CD28 (human) [20],105 MFI
same,MFI,PD-L1 (human) [21],9 MFI
same,parental ratio,PD-L1 (human) [21],0.13
same,MFI,human CTLA-4 (human) [22],200 MFI
same,parental ratio,human CTLA-4 (human) [22],0.96
CD80 E35D/M47I/L70M IgV-Fc (effector) (Fc fusion),"Jurkat/IL2 reporter RLU at 50 nM, K562/OKT3/PD-L1 aAPC",CD28 (human) [23],3870 RLU
same,"Jurkat/IL2 reporter RLU at 50 nM, K562/OKT3 aAPC without PD-L1",CD28 (human) [23],5780 RLU
same,"Jurkat/IL2 reporter RLU at 50 nM, K562/OKT3/PD-L1 aAPC",PD-L1 (human) [24],3870 RLU
same,"IL-2 release, primary T cells + K562/OKT3 (No PD-L1), 100 nM",CD28 (human) [25],25300
variant CD80 IgV-Fc S15P/Q33L/E35D/M47L/L85Q (Fc fusion),MFI at 33.3 nM,CD28 (human) [16],266 MFI
CD80 K54M/L70Q/A91G/Y164H ECD-Fc (SEQ ID NO 1399) (Fc fusion),MFI,CD28 (human) [20],68 MFI
same,parental ratio,CD28 (human) [20],0.71
same,MFI,PD-L1 (human) [21],5 MFI
same,parental ratio,PD-L1 (human) [21],0.08
same,MFI,human CTLA-4 (human) [22],131 MFI
same,parental ratio,human CTLA-4 (human) [22],0.63
CD80 M38T/L70Q/E77G/A91G/I118V/T120S/T130A/N152T ECD-Fc (Fc fusion),MFI,CD28 (human) [20],61 MFI
CD80 R29H/E52G/L70R/E88G/A91G/T130A ECD-Fc (Fc fusion),MFI,CD28 (human) [20],100 MFI
same,MFI,PD-L1 (human) [21],5 MFI
same,parental ratio,PD-L1 (human) [21],0.08
same,MFI,human CTLA-4 (human) [22],119 MFI
same,parental ratio,human CTLA-4 (human) [22],0.57
WT CD80 IgV-Fc (Fc fusion),"Jurkat/IL2 reporter RLU at 50 nM, K562/OKT3/PD-L1 aAPC",CD28 (human) [23],663 RLU
same,"Jurkat/IL2 reporter RLU at 50 nM, K562/OKT3 aAPC without PD-L1",CD28 (human) [23],1250 RLU
same,"Jurkat/IL2 reporter RLU at 50 nM, K562/OKT3/PD-L1 aAPC",PD-L1 (human) [24],663 RLU
CD80 T28S/L70Q/A91G/E95K/I118V/T120S/I126V/T130A/K169E ECD-Fc (Fc fusion),MFI,CD28 (human) [20],32 MFI
same,parental ratio,CD28 (human) [20],0.34
same,MFI,PD-L1 (human) [21],6 MFI
same,parental ratio,PD-L1 (human) [21],0.08
same,MFI,human CTLA-4 (human) [22],65 MFI
same,parental ratio,human CTLA-4 (human) [22],0.31
CD80 R29H/E52G/D90N/I118V/T120S/T130A ECD-Fc (Fc fusion),MFI,CD28 (human) [20],66 MFI
same,MFI,human CTLA-4 (human) [22],141 MFI
CD80 E35D/D46V/L85Q IgV-Fc (effector) (Fc fusion),"Jurkat/IL2 reporter RLU at 50 nM, K562/OKT3/PD-L1 aAPC",CD28 (human) [23],4130 RLU
same,"Jurkat/IL2 reporter RLU at 50 nM, K562/OKT3 aAPC without PD-L1",CD28 (human) [23],7020 RLU
same,"Jurkat/IL2 reporter RLU at 50 nM, K562/OKT3/PD-L1 aAPC",PD-L1 (human) [24],4130 RLU
same,"IL-2 release, primary T cells + K562/OKT3 (No PD-L1), 100 nM",CD28 (human) [25],25400
CD80 E24G/L25P/L70Q/A91G/I118V/T120S/N152T ECD-Fc (Fc fusion),MFI,CD28 (human) [20],26 MFI
same,MFI,human CTLA-4 (human) [22],38 MFI
CD80 A71D/L72V/E95K IgV-Fc (inert) (Fc fusion),"Jurkat/IL2 reporter RLU at 50 nM, CHO/OKT3/PD-L1 aAPC",CD28 (human) [26],755 RLU
same,"Jurkat/IL2 reporter RLU at 50 nM, CHO/OKT3 aAPC without PD-L1",CD28 (human) [26],644 RLU
same,"Jurkat/IL2 reporter RLU at 50 nM, CHO/OKT3/PD-L1 aAPC",PD-L1 (human) [27],755 RLU
variant CD80 IgV-Fc H18Y/A26E/E35D/M47L/D90G (Fc fusion),"IL-2 luciferase reporter, fold increase over WT CD80-IgV-Fc at 5.0 nM",CD28 (human) [17],2.37 fold
same,"IL-2 luciferase reporter, fold increase over WT CD80-IgV-Fc at 5.0 nM",PD-L1 (human) [18],2.37 fold
same,Fold change to WT CD80,CD28 (human) [3],31.4 fold
same,MFI at 33.3 nM,CD28 (human) [3],1380 MFI
same,Fold change to WT CD80,human CTLA-4 (human) [10],14.5 fold
same,MFI at 33.3 nM,human CTLA-4 (human) [10],19700 MFI
same,Fold change to WT CD80,PD-L1 (human) [11],291 fold
same,MFI at 33.3 nM,PD-L1 (human) [11],12700 MFI
same,Ratio of PDL1:CD28,PD-L1 (human) [19],9.2
